# From the nanobody polyreactivity screen of Harvey et al. (2022)
# Assay: yeast display, Sf9 membrane polyspecificity reagent, FACS + sequencing; frameworks hold sequencing errors
# Method in brief: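 After 36–48 hours of galactose induction, yeast (Saccharomyces cerevisiae BJ5465) displaying a synthetic nanobody library were stained at 4 °C for 1 hour with 10% biotinylated, detergent-solubilized Sf9 membrane reagent. Streptavidin microbeads enriched the stained cells before FACS sorting into low and high (top ~1%) gates on anti-HA and streptavidin fluorescence. Each clone's polyreactivity label reflects its gate of origin.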
row,Sequence,polyreactivity (PSR sort gate)
1,QVQLVESGGGLVQAGGSLRLSCAASGRIFVPNAMGWYRQAPGKERELVARISRSDGSTYYADSVKGRFTISRDNAKNTVYLQMNSLKPEDTAVYYCAASTTPRWWSFKYYYWGQGTEVTVSS,high polyreactivity
2,QVQLVESGGGLVQAGGSLRLSCAASGRIFVPYAMGWSRQAPGKERELVAAISWRGGSTNYADSVKGRFTISRDNAKNTVYLQMNSLKPEDTAVYYCAAVPVRYRYSYGYYYWGQGTQVTVSS,high polyreactivity
3,QVQLVESGGGLVQAGGSLRLSCAASGRIFVPYAMGWYRQAPGKERELVAAITWRGGSTYYADSVKGRFTISRDNAKNTVYLQMNSLKPEDTAVYYCNADEASPWFWFSHLQVGMDYWGQGTQVTVSS,low polyreactivity
4,QVQLVESGGGLVQAGGSLRLSCAASGRIFVPYTMGWYRQAPGKERELVAAISRSGGSTYYADSVKGRFTISRDNAKNTVYLQMNSLKPEDTAVYYCAARATNVYSKMDYWGQGTQVTVSS,high polyreactivity
5,QVQLVESGGGLVQAGGSLRLSCAASGRIFVPYTMGWYRQAPGKEWELVAAISRSGGSTYYADSVKGRFTISRDNAKNTVYLQMNSLKPEDTAVYYCAARATNVYSKMDSWGQGTQVTVSS,high polyreactivity
6,QVQLVESGGGLVQAGGSLRLSCAASGRIFVRNAMGWYRQAPGKERELVAAITRTGASTYYADSVKGRFTISRDNAKNTVYLQMNSLKPEDTAVYYCAAVWGWPYWVYRYDYWGQGTQVTVSS,high polyreactivity
7,QVQLVESGGGLVQAGGSLRLSCAASGRIFVRNAMGWYRQAPGKERELVAAITSGAGSTNYADSVKGRFTISRDNAKNTVYLQMNSLKPEDTAVYYCAADYETGAVSILDDYWGQGTQVTVSS,low polyreactivity
8,QVQLVESGGGLVQAGGSLRLSCAASGRIFVRNAMGWYRQAPGKERELVADITNGGSTNYADSVKGRFTISRDNAKNTVYLQMNSLKPEYTAVYYCAADTLGVYDGDYWGQGTQVTVSS,low polyreactivity
9,QVQLVESGGGLVQAGGSLRLSCAASGRIFVRNAMGWYRQAPGKERELVAGISKRGSRTYYADSVKGRFTISRDNPKNTVYLQMNSLKPEDTAVYYCAVRSYIASYRDARIRFYYWGQGTQVTVSS,high polyreactivity
10,QVQLVESGGGLVQAGGSLRLSCAASGRIFVRNAMGWYRQAPGKERELVASISSSSGSTYYADSVKGRFTISRDNAKNTVYIQMNSLKPEDTAVYYCNAGYHFVHWPHVKHKKFDYWGQGTQVTVSS,low polyreactivity
11,QVQLVESGGGLVQAGGSLRLSCAASGRIFVRNPMGWYRQAPGKERELVADITNGGSTNYADSVKGRFTISRDNAKNTVYLQMNSLKPEDTAVYYCAATYPYSWVYSGYYYWGQGTQVTVSS,low polyreactivity
12,QVQLVESGGGLVQAGGSLRLSCAASGRIFVRYAMGWYRQAPGKERELVAAITKSGGSTYYADSVKGRFTISRDNAKNTVYLQMNSLKPEDTAVYYCNADRFYIDYTNTYDSIRDYWGQGTQVTVSS,low polyreactivity
13,QVQLVESGGGLVQAGGSLRLSCAASGRIFVRYTMGWYRQAPGKERELVAAITKRGGSTYYADSVKGRFTISRDNAKNTVYLQMNSLKPEDTAVYYCATDGLGYNRPQDEYWGQGTQVTVSS,high polyreactivity
14,QVQLVESGGGLVQAGGSLRLSCAASGRIFVSNDMGWYRQAPGKERELVAAISWSDDSTHYADSVKGRFTISRDNAKNTVYLQMNSLKPEDTAVYYCNKQRYYSTWRYDYWGQGTQVTVSS,low polyreactivity
15,QVQLVESGGGLVQAGGSLRLSCAASGRIFVSYDMGWYRQAPGKEREFVAAIRRSGSSTYYADSVKGRFTISRDNAKNTVYLQMNSLKPEDTAVYYCAAYQRSRTLRRYDYWGQGTQVTVSS,high polyreactivity
16,QVQLVESGGGLVQAGGSLRLSCAASGRIFVTYAMGWYRHAPGKERELVAAITSDGSTSYADSVKGRFTISRDNAKNTGYLQMNRLKPEDTAVYYSAKDFFEHSPVSHTYSSSKYEYWGQGTQVTVSS,low polyreactivity
17,QVQLVESGGGLVQAGGSLRLSCAASGRIFVTYAMGWYRQAPGKERELVAVISWSGGSTYYADSVKGRFTISRDNAKNTVYLQMNSLKPEDTAVYYCARGLRKVRFDYWGQGTQVTVSS,low polyreactivity
